Reference: patent publication US20210054094A1 (Hoffmann-La Roche, published 2021)

T1: B-cell maturation antigen (BCMA) (UniProt Q02223 1-184, limits assumed)
T1 sequence (looked up): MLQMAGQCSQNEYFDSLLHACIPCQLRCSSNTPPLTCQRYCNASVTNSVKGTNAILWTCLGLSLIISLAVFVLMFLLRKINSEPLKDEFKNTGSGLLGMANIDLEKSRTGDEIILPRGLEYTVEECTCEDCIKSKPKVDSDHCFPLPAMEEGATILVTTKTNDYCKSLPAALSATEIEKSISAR

B1: 5F11-TCB (bispecific antibody, human IgG1, kappa, L234A L235A)
light 1: DIVMTQAPLSVSVTPGESASISCRSSKSLLHSNGITYVYWYFQKPGKSPQVLIYRMSNLASGVPDRFSGSGSETDFTLKISRVEAEDVGIYHCGQLLENPYTFGAGTELELKRTVAAPSVFIFPPSDRKLKSGTASVVCLLNNFYPREAKVQWKVDNALQSGNSQESVTEQDSKDSTYSLSSTLTLSKADYEKHKVYACEVTHQGLSSPVTKSFNRGEC
light 2: EVQLLESGGGLVQPGGSLRLSCAASGFTFSTYAMNWVRQAPGKGLEWVSRIRSKYNNYATYYADSVKGRFTISRDDSKNTLYLQMNSLRAEDTAVYYCVRHGNFGNSYVSWFAYWGQGTLVTVSSASVAAPSVFIFPPSDEQLKSGTASVVCLLNNFYPREAKVQWKVDNALQSGNSQESVTEQDSKDSTYSLSSTLTLSKADYEKHKVYACEVTHQGLSSPVTKSFNRGEC
heavy 1: EVQLVESGGGLVQPGRSLKLSCAASGFSFSNYGMAWVRQAATKGLEWVASISTGGGNTYYRDSVKGRFIVSRDNAKNTQYLQMDSLRSEDTATYYCTRHDRGGLYWGQGVMVTVSSASTKGPSVFPLAPSSKSTSGGTAALGCLVEDYFPEPVTVSWNSGALTSGVHTFPAVLQSSGLYSLSSVVTVPSSSLGTQTYICNVNHKPSNTKVDEKVEPKSCDKTHTCPPCPAPEAAGGPSVFLFPPKPKDTLMISRTPEVTCVVVDVSHEDPEVKFNWYVDGVEVHNAKTKPREEQYNSTYRVVSVLTVLHQDWLNGKEYKCKVSNKALGAPIEKTISKAKGQPREPQVCTLPPSRDELTKNQVSLSCAVKGFYPSDIAVEWESNGQPENNYKTTPPVLDSDGSFFLVSKLTVDKSRWQQGNVFSCSVMHEALHNHYTQKSLSLSPGK
heavy 2: not shown
B2: BCMA-TCB (bispecific antibody, human IgG1, kappa, L234A L235A)
heavy 1: EVQLLESGGGLVQPGGSLRLSCAASGFTFSSYAMNWVRQAPGKGLEWVSAITASGGSTYYADSVKGRFTISRDNSKNTLYLQMNSLRAEDTAVYYCARYWPMSLWGQGTLVTVSSASTKGPSVFPLAPSSKSTSGGTAALGCLVEDYFPEPVTVSWNSGALTSGVHTFPAVLQSSGLYSLSSVVTVPSSSLGTQTYICNVNHKPSNTKVDEKVEPKSCDKTHTCPPCPAPEAAGGPSVFLFPPKPKDTLMISRTPEVTCVVVDVSHEDPEVKFNWYVDGVEVHNAKTKPREEQYNSTYRVVSVLTVLHQDWLNGKEYKCKVSNKALGAPIEKTISKAKGQPREPQVCTLPPSRDELTKNQVSLSCAVKGFYPSDIAVEWESNGQPENNYKTTPPVLDSDGSFFLVSKLTVDKSRWQQGNVFSCSVMHEALHNHYTQKSLSLSPGK
light 1: EIVLTQSPGTLSLSPGERATLSCRASQSVSAYYLAWYQQKPGQAPRLLMYDASIRATGIPDRFSGSGSGTDFTLTISRLEPEDFAVYYCQQYERWPLTFGQGTKVEIKRTVAAPSVFIFPPSDRKLKSGTASVVCLLNNFYPREAKVQWKVDNALQSGNSQESVTEQDSKDSTYSLSSTLTLSKADYEKHKVYACEVTHQGLSSPVTKSFNRGEC
heavy 2: not shown
light 2: B1 light 2

Assays:
Assay in all cases: cell-based or functional assay
human GPRC5D [1] = target: T2, human GPRC5D (human, UniProt Q9NZD1 1-345)
human GPRC5D [2] = target: T2, human GPRC5D; remark: listed apart in the source
[3] = target: T1, B-cell maturation antigen (BCMA)

T2 sequence (Q9NZD1 whole entry): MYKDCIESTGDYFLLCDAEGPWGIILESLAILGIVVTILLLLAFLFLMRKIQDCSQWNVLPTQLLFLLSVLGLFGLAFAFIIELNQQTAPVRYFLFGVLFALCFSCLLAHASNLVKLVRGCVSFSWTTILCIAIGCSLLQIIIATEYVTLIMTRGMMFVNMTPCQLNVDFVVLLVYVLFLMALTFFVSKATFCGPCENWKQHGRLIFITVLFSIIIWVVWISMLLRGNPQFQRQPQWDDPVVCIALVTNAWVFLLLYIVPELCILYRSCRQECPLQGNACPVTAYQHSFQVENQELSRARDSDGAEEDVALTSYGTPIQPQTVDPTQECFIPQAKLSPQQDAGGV

| Binder | EC50 of T cell cytotoxicity (LDH release) on AMO-1 cells (human GPRC5D [1]) [pM] | EC50 of T cell cytotoxicity (LDH release) on L363 cells (human GPRC5D [1]) [pM] | EC50 of T cell cytotoxicity (LDH release) on NCI-H929 cells (human GPRC5D [1]) [pM] | EC50 of T cell cytotoxicity (LDH release) on RPMI-8226 cells (human GPRC5D [1]) [pM] | EC50 of in vitro killing, AMO-1 cells (human GPRC5D [2]) [pM] | EC50 of in vitro killing, EJM cells (human GPRC5D [2]) [pM] | EC50 of in vitro killing, L363 cells (human GPRC5D [2]) [pM] | EC50 of in vitro killing, MOLP-2 cells (human GPRC5D [2]) [pM] | EC50 of in vitro killing, NCI-H929 cells (human GPRC5D [2]) [pM] | EC50 of in vitro killing, OPM-2 cells (human GPRC5D [2]) [pM] | EC50 of in vitro killing, RPMI cells (human GPRC5D [2]) [pM] | EC50 of in vitro killing, AMO-1 cells [3] [pM] | EC50 of in vitro killing, EJM cells [3] [pM] | EC50 of in vitro killing, L363 cells [3] [pM] | EC50 of in vitro killing, MOLP-2 cells [3] [pM] | EC50 of in vitro killing, NCI-H929 cells [3] [pM] | EC50 of in vitro killing, OPM-2 cells [3] [pM] | EC50 of in vitro killing, RPMI cells [3] [pM] |
| --- | --- | --- | --- | --- | --- | --- | --- | --- | --- | --- | --- | --- | --- | --- | --- | --- | --- | --- |
| B1 | 3 | 1 | 1 | 2 | 6 | 3 | 3 | 1 | 4 | 1 | 6 | – | – | – | – | – | – | – |
| B2 | – | – | – | – | – | – | – | – | – | – | – | 518 | 132 | 127 | 32 | 311 | 33 | 11 |
